Data published in US20260015434A1, “ANTIBODY MATERIALS AND METHODS TARGETING MICROBIAL POLYSACCHARIDES” (priority 2022, published 2026).

Tested on: PNAG conjugates on the array (dPNAG, PNAG and intermediate levels of deacetylation)
Assay: Neoglycoprotein (glycan) microarray binding, 816-component array
Settings: ability to bind both dPNAG and PNAG and intermediate levels of deacetylation

| Molecule | PNAG Binding on Array |
| --- | --- |
| ADI-45379: Original clone from screen; HC SEQ ID NO: 1, LC SEQ ID NO: 2 (antibody, listed as Homo sapiens, V domains shown) VH: EVQLLESGGGLVQPGGSLRLSCAVSGFPFSSYWMSWVRQAPGKGLEWVANIKEDGSEKYYVDSVKGRFTISRDNAKNSLYLQMNSLRAEDTAVYYCATDPDVGLSDSWGQGTLVTVSS VL: ETTLTQSPATLSLSPGDRATHSCRASQSVSRSYLAWYQQKPGQTPRLFIYGASNRATGIPDRFSGSGSGTYFTLTISRLEPEDFAVYYCQQYDSAPDTFGQGTRLEIK | Yes |
| 120 × TG: 1467120 HC (SEQ ID NO: 45) with TG10 LC (SEQ ID NO: 12) (antibody, V domains shown, Based on an antibody sequence.; TG10 Light Chain Variable Region) VH: QVQLVESGGGLVQPGGSLRLSCAASGFTFSSYWMSWVRQAPGKGLEWVANIKQDGSEKYYVDSVKGRFTISRDNAKNSLYLQMNSLRAEDTAVYYCARDPEGGLPDYWGQGTLVTVSS VL: EIVLTQSPGTLSLSPGDRATHSCRASQSVSRSYLAWYQQKPGQTPRLFIYGASNRATGIPDRFSGSGSGTYFTLTISRLEPEDFAVYYCQQYDSAPDTFGQGTRLEIK | No |
| TG10 LC Y55A: TG10 HC (SEQ ID NO: 3) with TG10 LC Y55A (SEQ ID NO: 40) (antibody, V domains shown, TG10 Heavy Chain Variable Region; Site directed mutation of TG10 LC Variable Region) VH: EVQLVESGGGLVQPGGSLRLSCAVSGFPFSSYWMSWVRQAPGKGLEWVANIKEDGSEKYYVDSVKGRFTISRDNAKNSLYLQMNSLRAEDTAVYYCATDPDVGLSDSWGQGTLVTVSS VL: EIVLTQSPGTLSLSPGDRATHSCRASQSVSRSYLAWYQQKPGQTPRLFIAGASNRATGIPDRFSGSGSGTYFTLTISRLEPEDFAVYYCQQYDSAPDTFGQGTRLEIK | Yes |
| 729 × TG: 15729 HC (SEQ ID NO: 44) with TG10 LC (SEQ ID NO: 12) (antibody, V domains shown, Based on an antibody sequence.; TG10 Light Chain Variable Region) VH: EVQLVESGGGLVQPGGSLRLSCAASGFTFSSYWMSWVRQAPGKGLEWVANIKQDGSEKYYVDSVKGRFTISRDNAKNSLYLQMNSLRAEDTAVYYCARDPDGRIFDYWGQGTLVTVSS VL: EIVLTQSPGTLSLSPGDRATHSCRASQSVSRSYLAWYQQKPGQTPRLFIYGASNRATGIPDRFSGSGSGTYFTLTISRLEPEDFAVYYCQQYDSAPDTFGQGTRLEIK | No |
| TG10 P108A: TG10 HC P108A (SEQ ID NO: 36) with TG10 LC (SEQ ID NO: 12) (antibody, V domains shown, Site directed mutation of TG10 HC Variable Region; TG10 Light Chain Variable Region) VH: EVQLVESGGGLVQPGGSLRLSCAVSGFPFSSYWMSWVRQAPGKGLEWVANIKEDGSEKYYVDSVKGRFTISRDNAKNSLYLQMNSLRAEDTAVYYCATDADVGLSDSWGQGTLVTVSS VL: EIVLTQSPGTLSLSPGDRATHSCRASQSVSRSYLAWYQQKPGQTPRLFIYGASNRATGIPDRFSGSGSGTYFTLTISRLEPEDFAVYYCQQYDSAPDTFGQGTRLEIK | Yes |
| 285 × TG: 4488285 HC (SEQ ID NO: 46) with TG10 LC (SEQ ID NO: 12) (antibody, V domains shown, Based on an antibody sequence.; TG10 Light Chain Variable Region) VH: EVQLVESGGGLVQPGGSLRLSCAASGFTFSSYWMSWVRQAPGKGLEWVANIKQDGSEKYYVDSVKGRFTISRDNAKNSLYLQMNSLRAEDTAVYYCARDPYMGLIDYWGQGTLVTVSS VL: EIVLTQSPGTLSLSPGDRATHSCRASQSVSRSYLAWYQQKPGQTPRLFIYGASNRATGIPDRFSGSGSGTYFTLTISRLEPEDFAVYYCQQYDSAPDTFGQGTRLEIK | No |
| TG10 Y66A: TG10 HC Y66A (SEQ ID NO: 38) with TG10 LC (SEQ ID NO: 12) (antibody, V domains shown, Site directed mutation of TG10 HC Variable Region; TG10 Light Chain Variable Region) VH: EVQLVESGGGLVQPGGSLRLSCAVSGFPFSSYWMSWVRQAPGKGLEWVANIKEDGSEKAYVDSVKGRFTISRDNAKNSLYLQMNSLRAEDTAVYYCATDPDVGLSDSWGQGTLVTVSS VL: EIVLTQSPGTLSLSPGDRATHSCRASQSVSRSYLAWYQQKPGQTPRLFIYGASNRATGIPDRFSGSGSGTYFTLTISRLEPEDFAVYYCQQYDSAPDTFGQGTRLEIK | Yes |
| TG10 V110R: TG10 HC V110R (SEQ ID NO: 39) with TG10 LC (SEQ ID NO: 12) (antibody, V domains shown, Site directed mutation of TG10 HC Variable Region; TG10 Light Chain Variable Region) VH: EVQLVESGGGLVQPGGSLRLSCAVSGFPFSSYWMSWVRQAPGKGLEWVANIKEDGSEKYYVDSVKGRFTISRDNAKNSLYLQMNSLRAEDTAVYYCATDPDRGLSDSWGQGTLVTVSS VL: EIVLTQSPGTLSLSPGDRATHSCRASQSVSRSYLAWYQQKPGQTPRLFIYGASNRATGIPDRFSGSGSGTYFTLTISRLEPEDFAVYYCQQYDSAPDTFGQGTRLEIK | Yes |
| TG10 D116A: TG10 HC D116A (SEQ ID NO: 34) with TG10 LC (SEQ ID NO: 12) (antibody, V domains shown, Site directed mutation of TG10 HC Variable Region; TG10 Light Chain Variable Region) VH: EVQLVESGGGLVQPGGSLRLSCAVSGFPFSSYWMSWVRQAPGKGLEWVANIKEDGSEKYYVDSVKGRFTISRDNAKNSLYLQMNSLRAEDTAVYYCATDPDVGLSASWGQGTLVTVSS VL: EIVLTQSPGTLSLSPGDRATHSCRASQSVSRSYLAWYQQKPGQTPRLFIYGASNRATGIPDRFSGSGSGTYFTLTISRLEPEDFAVYYCQQYDSAPDTFGQGTRLEIK | Yes |
| TG10 Y37A: TG10 HC Y37A (SEQ ID NO: 31) with TG10 LC (SEQ ID NO: 12) (antibody, V domains shown, Site directed mutation of TG10 HC Variable Region; TG10 Light Chain Variable Region) VH: EVQLVESGGGLVQPGGSLRLSCAVSGFPFSSAWMSWVRQAPGKGLEWVANIKEDGSEKYYVDSVKGRFTISRDNAKNSLYLQMNSLRAEDTAVYYCATDPDVGLSDSWGQGTLVTVSS VL: EIVLTQSPGTLSLSPGDRATHSCRASQSVSRSYLAWYQQKPGQTPRLFIYGASNRATGIPDRFSGSGSGTYFTLTISRLEPEDFAVYYCQQYDSAPDTFGQGTRLEIK | Yes |
